How the values were obtained:
[1] = molecular target: plasma peptide at m/z=5082±4
[2] = molecular target: T1, T45S variant of human apolipoprotein C1 (low mass variant, m/z=6617/6618)
T1 chain: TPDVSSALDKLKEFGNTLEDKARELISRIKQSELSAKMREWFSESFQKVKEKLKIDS

[3] = molecular target: T2, human apolipoprotein C1, common form (m/z=6631)
T2 chain: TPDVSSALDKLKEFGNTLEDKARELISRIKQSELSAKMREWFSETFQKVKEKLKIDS

B1: hog kidney dipeptidyl peptidase IV (DPPase IV), purchased from the Sigma Chemical Company (protein)
chain: DSRRTYTLTDYLKSTFRVKFYTLQWISDHEYLYKQENNILLFNAEYGNSSIFLENSTFDELGYSTNDYSVSPDRQFILFEYNYVKQWRHSYTASYDIYDLNKRQLITEERIPNNTQWITWSPVGHKLAYVWNNDIYVKNEPNLSSQRITWTGKENVIYNGVTDWVYEEEVFSAYSALWWSPNGTFLAYAQFNDTEVPLIEYSFYSDESLQYPKTVRIPYPKAGAENPTVKFFVVDTRTLSPNASVTSYQIVPPASVLIGDHYLCGVTWVTEERISLQWIRRAQNYSIIDICDYDESTGRWISSVARQHIEISTTGWVGRFRPAEPHFTSDGNSFYKIISNEEGYKHICHFQTDKSNCTFITKGAWEVIGIEALTSDYLYYISNEHKGMPGGRNLYRIQLNDYTKVTCLSCELNPERCQYYSASFSNKAKYYQLRCFGPGLPLYTLHSSSSDKELRVLEDNSALDKMLQDVQMPSKKLDVINLHGTKFWYQMILPPHFDKSKKYPLLIEVYAGPCSQKVDTVFRLSWATYLASTENIIVASFDGRGSGYQGDKIMHAINRRLGTFEVEDQIEATRQFSKMGFVDDKRIAIWGWSYGGYVTSMVLGAGSGVFKCGIAVAPVSKWEYYDSVYTERYMGLPTPEDNLDYYRNSTVMSRAENFKQVEYLLIHGTADDNVHFQQSAQLSKALVDAGVDFQTMWYTDEDHGIASNMAHQHIYTHMSHFLKQCFSLP
[1]
  MALDI-TOF profile after 2 hours of digestion of diluted plasma with 1 unit of enzyme: The 5082 peak had been completely digested to the 4885 peak
[2]
  rate of enzyme cleavage (m/z=6618 conversion to m/z=6420) relative to the common form of apolipoprotein C1: 3.1 times the rate of degradation of the more common form of apolipoprotein C1
[3]
  MALDI-TOF profile after incubation of human plasma with the enzyme (conversion of the 6631 peak to the 6433 peak): The enzyme converted all of the material in the peak at 6631 to material in the 6433 peak
  rate of enzyme cleavage (m/z=6631 conversion to m/z=6433), reference for the T45S variant: degradation of the more common form of apolipoprotein C1 (m/z=6631 conversion to m/z=6433)

Source: patent US20070087448
